Measurements: publication PMC13169712, “Structural determinants of peanut-induced anaphylaxis” (The Journal of allergy and clinical immunology, 2025)

Key:
Conditions in all cases: both partners purified
recombinant Ara h 6 = molecular target: T1, recombinant Ara h 6 (Arachis hypogaea, UniProt Q647G9); experiment: SPR; Carterra LSA; antibodies noncovalently bound to PAGHC30M (Protein A/G) sensor chips; analyte at 0.16, 0.8, 4, 20, 100 and 500 nM in HBS-TE, 0.05% BSA; 5 min association, 15 min dissociation
T1 construct: Ara h 6, Arachis hypogaea; May be the same construct as Ara h 6c; also called rAra h 6; rArah6; source: recombinant

recombinant Ara h 2.01 = molecular target: T2, recombinant Ara h 2.01 (Arachis hypogaea, Ara h 2.01, UniProt Q6PSU2;PDB, strain); experiment: SPR; Carterra LSA; antibody as ligand, allergen or peptide as analyte; how the antibody was held for these pairs is not told
T2 construct: also called rArah2.01; source: HEK cell-produced, recombinant

recombinant Ara h 2.02 [1] = molecular target: T3, recombinant Ara h 2.02 (Arachis hypogaea, Ara h 2.02, UniProt Q6PSU2, strain); experiment: as above
T3 construct: also called rArah2.02; source: recombinant

recombinant Ara h 2.02 [2] = molecular target: T3, recombinant Ara h 2.02; experiment: SPR; Carterra LSA; antibodies noncovalently bound to PAGHC30M (Protein A/G) sensor chips; analyte at 0.16, 0.8, 4, 20, 100 and 500 nM in HBS-TE, 0.05% BSA; 5 min association, 15 min dissociation
[3] = molecular target: T4, rAra h 2 with the DPYSPS-containing loop deleted (Arachis hypogaea, Ara h 2.01 background, UniProt Q6PSU2;PDB, point mutant); experiment: as above
T4 construct: also called rAra h 2_loopdel; rArah2_loopdel

| Binder | binding result (recombinant Ara h 6) | Kd (recombinant Ara h 2.01) | koff (recombinant Ara h 2.01) | kon (recombinant Ara h 2.01) | Kd (recombinant Ara h 2.02 [1]) | koff (recombinant Ara h 2.02 [1]) | kon (recombinant Ara h 2.02 [1]) | Kd (recombinant Ara h 2.02 [2]) | koff (recombinant Ara h 2.02 [2]) | kon (recombinant Ara h 2.02 [2]) | Kd [3] | koff [3] | kon [3] | Kd (recombinant Ara h 6) | koff (recombinant Ara h 6) | kon (recombinant Ara h 6) |
| --- | --- | --- | --- | --- | --- | --- | --- | --- | --- | --- | --- | --- | --- | --- | --- | --- |
| 38B7 human IgE mAb (antibody, V domains shown, variable region as in the heavy chain of m5; human IgE heavy chain constant region; as the light chain of m5; In the SPR some pairs used antibody captured on a Protein A/G chip; also called IgE mAb 38B7; 38B7 IgE) VH: QVQLVESGGGVVQPGRSLRLSCVGSGFTFRRDAKYWVRQAPGKGLEWVAAISHDGGEEDYAESVKGRFTISRDNSRETVYLEMNSLRPEDTAVYYCATTRSGWYFDYWGQGALVTVSS VL: EIVLTQSPATLSLSPGARATLSCRASQSVDTYLAWYQQRRGQSPRLLIYDASKRATGIPARFSGSGSGTDFTLTISSLEPEDFAVYYCQQRNNWRTWTFGQGTKVEIN | no binding (tested: 500 nM (highest analyte concentration)) | 30 nM | 0.000459 s⁻¹ | 15500 M⁻¹ s⁻¹ | 3.5 nM | 0.000474 s⁻¹ | 165000 M⁻¹ s⁻¹ | – | – | – | – | – | – | – | – | – |
| 16A8 human IgE mAb (antibody, V domains shown, variable region as in the heavy chain of m1; human IgE heavy chain constant region; as the light chain of m1; In the SPR some pairs used antibody captured on a Protein A/G chip; also called 16A8 antibody) VH: QVQLVQSGPDVRKPGATVKVSCQTSGYRFTDYEMNWVRQAPGQGLEWIGLINPHSGDTAYAQKFQGRVTMTSDTSDSTVYLELSGLTPDDTAVYYCARSQGTFEVYYFVSWGQGSLVTVSS VL: SYVLTQPPSMSVAPGTTASIPCGANNIAKKRVHWYRQKPGQAPVVVVSDDEDRSSVIPDRFSGSKSGDTATLTISRVEAGDEGDYYCQVWDSKTDHVVFGGGTKVTVL | – | 0.065 nM | 5.63e-05 s⁻¹ | 872000 M⁻¹ s⁻¹ | – | – | – | 0.036 nM | 3.82e-05 s⁻¹ | 1.35e+06 M⁻¹ s⁻¹ | 0.017 nM | 3.69e-05 s⁻¹ | 2.22e+06 M⁻¹ s⁻¹ | 0.036 nM | 8.57e-05 s⁻¹ | 2.39e+06 M⁻¹ s⁻¹ |
